This is an account of results in paper doi:10.1101/2020.06.03.132209 (bioRxiv, 2020).

The assay addresses T1, Dehydrodolichyl diphosphate synthase (DHDDS), full length (1-333), untagged (human, UniProt Q86SQ9-1 1-333).
T1 sequence: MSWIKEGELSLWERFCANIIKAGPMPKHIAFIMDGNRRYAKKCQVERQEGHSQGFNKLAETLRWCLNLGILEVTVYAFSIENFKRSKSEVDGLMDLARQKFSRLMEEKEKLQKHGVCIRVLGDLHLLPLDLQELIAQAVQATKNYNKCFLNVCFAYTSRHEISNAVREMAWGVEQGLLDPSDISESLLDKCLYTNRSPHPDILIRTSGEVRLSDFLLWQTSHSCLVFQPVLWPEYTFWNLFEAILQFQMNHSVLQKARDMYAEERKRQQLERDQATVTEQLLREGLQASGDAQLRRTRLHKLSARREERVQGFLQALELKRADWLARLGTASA
Nature of the assay: crystal structure.

B1: NgBR^79-293 (Nogo-B receptor, N-terminal 78 amino acids deleted) (domain or fragment)
chain: AAAHHRMRWRADGRSLEKLPVHMGLVITEVEQEPSFSDIASLVVWCMAVGISYISVYDHQGIFKRNNSRLMDEILKQQQELLGLDCSKYSPEFANSNDKDDQVLNCHLAVKVLSPEDGKADIVRAAQDFCQLVAQKQKRPTDLDVDTLASLLSSNGCPDPDLVLKFGPVDSTLGFLPWHIRLTEIVSLPSHLNISYEDFFSALRQYAACEQRLGK
For B1, the binding result is listed as “binds”.
